Measured values reported in paper PMC6289460.

Tested on: ArdK (intact) (Escherichia coli A56-1S (plasmid pA56-1S))
Experiment: BLI
Conditions: EMSA: 20 mM Tris pH 7.5, 100 mM KCl, 2 mM DTT, 10 mM EDTA, 50 mg/L poly(dI-dC), 20 C, 20 min, 3 fmol probe, 30 pmol protein; BLI: 1x kinetics buffer (Pall …)

107 bp probe upstream of blaIMP-6
Kd: 29.3 nM
